# Assay results taken from patent US20110229463A1 (SYMPHOGEN A S, published 2011).
# Numbering of substitutions follows the chain as printed.
# B1: antibody 1261 (antibody, human IgG1, kappa, V domains shown)
# VH: EVQLVESGGGLVKPGGSLKLSCAVSGFTFSSYVMSWVRQTPEKRLEWVATITSGGRNIYYLDSVKGRFTISRDNAKNTLYLQMSSLRSEDTAMYYCARHEDYRYDGYYAMDYWGQGTSVTVSS
# VL: QIVLTQSPAIMSASPGEKVTITCSASSSVSYMHWFQQKPGTSPKLWIYSTSNLASGVPARFSGSGSGTSYSLTISRMEAEDAATYYCQQRSSYPYTFGGGTKLELKR
# notes: Chimeric mouse/human IgG1 kappa
# B2: antibody 1347 (antibody, human IgG1, kappa, V domains shown)
# VH: QVQLKESGPGLVAPSQSLSITCTVSGFSLTGHGVNWVRQPPGKGLEWLGMIWGDGSTDYNSTLKSRLSISKDNSKSQVFLKMNSLQTDDTARYYCARGYGYLYYFDYWGQGTTLTVSS
# VL: ENVLTQSPAIMSASPGEKVTMTCRASSSVSSSYLHWYQQKSGASPKLWIYSTSNLASGVPARFSGSGSGTSYSLTVNSVETEDAATYYCHQYSGFPFTFGSGTKLELKR
# notes: as for B1
# B3: antibody 992 (antibody, human IgG1, kappa, V domains shown)
# VH: EVQLQQPGSELVRPGASVKLSCKASGYTFTSYWMHWVKQRPGQGLEWIGNIYPGSRSTNYDEKFKSKATLTVDTSSSTAYMQLSSLTSEDSAVYYCTRNGDYYVSSGDAMDYWGQGTSVTVSS
# VL: DIQMTQTTSSLSASLGDRVTISCRTSQDIGNYLNWYQQKPDGTVKLLIYYTSRLHSGVPSRFSGSGSGTDFSLTINNVEQEDVATYFCQHYNTVPPTFGGGTKLEIKR
# notes: Chimeric mouse variable / human IgG1 kappa; the light chain entry includes the human kappa constant region; the end of the range is counted on the printed entry
# B4: antibody 1024 (antibody, human IgG1, kappa, V domains shown)
# VH: QVQLQQPGAELVEPGGSVKLSCKASGYTFTSHWMHWVKQRPGQGLEWIGEINPSSGRNNYNEKFKSKATLTVDKSSSTAYMQFSSLTSEDSAVYYCVRYYGYDEAMDYWGQGTSVTVSS
# VL: DIVMTQAAFSNPVTLGTSASISCRSSKSLLHSNGITYLYWYLQKPGQSPQLLIYQMSNLASGVPDRFSSSGSGTDFTLRISRVEAEDVGVYYCAQNLELPYTFGGGTKLEIKR
# notes: as for B1
# B5: antibody 1030 (antibody, human IgG1, kappa, V domains shown)
# VH: EVQLVESGGGLVKPGGSLKLSCAASGFTFSSYALSWVRQTPERRLEWVASISGVGSTYFPDSVKGRFTMSRDNARNILYLQMSSLRSEDTAMYYCARGSDGYFYAMDYWGQGTSVTVSS
# VL: DIVLTQSPASLAVSLGQRATISCRASKSVSTSGYSFMHWYQLKPGQPPKLLIYLASNLESGVPARFSGSGSGTDFTLNIHPVEEEDAATYYCQHSREFPLTFGGGTKLEIKR
# notes: as for B1
# B6: antibody 1260 (antibody, human IgG1, kappa, V domains shown)
# VH: QVQLKESGPGLVAPSQSLSITCTVSGFSLTTYGVHWVRQPPGKGLEWLGVIWAGGSTNYNSALMSRLSIKKDNSKSQVFLKMNSLQTDDTAMYYCARAYGYNFDYWGQGTTLTVSS
# VL: DIQMTQTTSSLSASLGDRVTISCSASQGITNYLNWYQQKPDGTVKLLIYYSSSLHSGVPSRFSGSGSGTDYSLTISNLEPEDIATYYCQQYSEIPYTFGGGTKLELKR
# notes: as for B1
# B7: antibody 1320 (antibody, human IgG1, kappa, V domains shown)
# VH: QVQLQQPGAELVKPGASMKLSCKASGYTFTNYWMHWVKQRPGQGLEWIGEINPSNGRTNYNEKFKSKATLTVDKSSSTAYMQLSSLTSEDSGVYYCAKGGNYYDYDWDYWGQGTTLTVSS
# VL: B6 VL with G28D, T30S, Y50H, S51T, S53T, E93K, I94L, Y96W, L106I
# notes: as for B1
# B8: Fab fragment of antibody 1030 (Fab, V domains shown, not shown: small tags and cut ends)
# VH: EVQLVESGGGLVKPGGSLKLSCAASGFTFSSYALSWVRQTPERRLEWVASISGVGSTYFPDSVKGRFTMSRDNARNILYLQMSSLRSEDTAMYYCARGSDGYFYAMDYWGQGTSVTVS
# VL: B5 VL
# B9: Fab fragment of antibody 992 (Fab, V domains shown, not shown: small tags and cut ends)
# VH: EVQLQQPGSELVRPGASVKLSCKASGYTFTSYWMHWVKQRPGQGLEWIGNIYPGSRSTNYDEKFKSKATLTVDTSSSTAYMQLSSLTSEDSAVYYCTRNGDYYVSSGDAMDYWGQGTSVTVS
# VL: B3 VL
# B10: antibody 1254 (antibody, human IgG1, kappa, V domains shown)
# VH: EVQLVESGGGLVKPGGSLKLSCAASGFAYSTYDMSWVRQTPEKRLEWVAYISSGGDAAYYPDTVKGRFTISRDNAKNTLYLQMSSLKSEDTAMYYCARSRYGNYGDAMDYWGQGTSVTVSS
# VL: DVVMTQTPLSLPVSLGDQASISCRSSQSLVHSNGNTYLHWYLQKPGQSPKLLLYKVSNRFSGVPDRFSGSGSGTDFTLKISRVESEDLGVYFCSQNTHVYTFGGGTKLEIKR
# notes: Chimeric mouse/human IgG1 kappa; also called mAb 1254
# B11: antibody 1284 (antibody, human IgG1, kappa, V domains shown)
# VH: QVQLQQPGAELVKPGASVKLSCKASGYTFTSDWMHWMKQRPGQGLEWIGEINPSNGRSSYNEKFKSKATLTVDKSSSTAYMQLSSLTSEDSAVYYCARIGGIYVETYWGQGTLVTVSS
# VL: DIVLTQSPASLAVSLGQRATISCRASQSVSTSTYSYMHWYQQKSGQPPKLLIKYASNLESGVPARFSGSGSGTDFTLNIHPVEEEDTATYYCQHSWEIPWTFGGGTKLEIKR
# notes: as for B1
# B12: Fab fragment of antibody 1024 (Fab, V domains shown, not shown: small tags and cut ends)
# VH: QVQLQQPGAELVEPGGSVKLSCKASGYTFTSHWMHWVKQRPGQGLEWIGEINPSSGRNNYNEKFKSKATLTVDKSSSTAYMQFSSLTSEDSAVYYCVRYYGYDEAMDYWGQGTSVTVS
# VL: B4 VL
# Assays:
# [1] = target: T1, recombinant human EGFR extracellular domain with 6xHis (human, UniProt P00533 25-645); experiment: SPR (BIAcore 2000): IgG captured by anti-human Fc, soluble EGFR ECD injected
# T1 construct: In-house protein; also called 6xHis EGFR ECD; soluble human EGFR ECD; not shown: 6xHis tag
# Experimental: Kinetic analysis of the full length IgG antibodies of the invention was performed on a BIAcore 2000, employing an assay as described in (Canziani, Klakamp, et al. 2004, Anal. Biochem, 325:301-307) allowing measurement of monovalent affinities of whole IgG molecules against soluble antigen. […] The chip surface was regenerated in between cycles by stripping the captured antibody/antigen complexes with a 10 second injection of 100 mM H₃PO₄. […] The association rate constant (ka) and dissociation constant (kd) were evaluated globally from the generated sensograms with the BIA evaluation software 4.1 provided by the manufacturer.
# [2] = target: T1, recombinant human EGFR extracellular …; experiment: SPR; EGFR ECD saturated with mix N=6: 1261+1347+992+1024+1030+1361
# Experimental: SPR analysis was performed on a Biacore 3000 machine containing four flow cells. A CM5 Biacore chip was conjugated with 10,000 Resonance units (Ru) polyclonal anti-His antibody to flow cells 1-4 according to the manufacturer's instructions. […] Immediately after antigen injection the maximal binding of the Anti-EGFR mAb without competition was established in each flow cell during a reference run. Briefly 5 μl antibody at a concentration of 40 μg/ml was injected over all flow cells with captured EGFR followed by stripping of the antibody/antigen complex with a low pH acid wash (10 sec. contact time with 10 mM Glycine-HCl, pH2). After the determination of Anti-EGFR antibody maximal binding to each flow cell, a competition run was performed during the same Biacore cycle. Flow cells were first saturated with EGFR ECD antigen followed by injection of different reference antibodies or Anti-EGFR antibodies into separate flow cells using the same antigen saturating conditions as outlined above. This step was immediately followed by a second injection of Anti-EGFR antibody over the flow cell saturated with EGFR antigen and competition antibody to minimize the dissociation of either antigen or blocking antibody. Then the antibody/antigen complexes were stripped off with a low pH acid wash (10 sec. contact time with 10 mM Glycine-HCl, pH 2) and the whole cycle beginning with the reference run was repeated with a new Anti-EGFR antibody. The degree of inhibition of tested Anti-EGFR antibodies were determined by comparing the Ru max value of the individual Anti-EGFR antibody before and after competition by introduction of report points recorded two seconds before and after injection of each sample.
# [3] = target: T2, Wild type full length EGFR purified from A431 cells (human, UniProt P00533 25-1210); experiment: ELISA: antibody titrated on coated full length EGFR, then biotinylated EGF (blocked ligand), streptavidin-HRP
# T2 construct: mature; purified from cells and coated on ELISA wells; also called purified full length EGFR; Sigma E3641
# Experimental: The next morning wells were washed twice with PBS-T and blocked for one hour with 150 μl PBS-T-1% BSA at room temperature, followed by wash twice in PBS-T. Next 80 μl of serially diluted Anti-EGFR antibodies and control antibodies were added to wells and incubated 30 min at room temperature. […] Subsequently wells were washed five times with PBS-T, followed by incubation with 100 μl/well Streptavidin-HRP secondary reagent diluted 1:1000 in blocking buffer and incubation at room temperature for 30 min. Finally wells were washed five times with PBS-T and plates were developed by adding 100 μL/well TMB substrate and incubated for 60 min. After incubation the reaction was stopped by addition of 1 M H₂SO₄; 100 μl/well and plates were read at OD 450 nm.
# [4] = target: T3, EGFR-Fc (recombinant EGFR ECD-Fc chimera, R&D Systems 344-ER) (human, UniProt P00533 25-645); experiment: SPR, Fab on immobilised EGFR ECD-Fc against IgG with soluble EGFR ECD
# T3 construct: Bought; also called immobilized Human EGFR ECD; not shown: Human IgG Fc
# [5] = target: T2, Wild type full length EGFR purified …; experiment: indirect ELISA, Fab on coated purified full length EGFR, anti-human Fab HRP
# [6] = target: T3, EGFR-Fc (recombinant EGFR ECD-Fc …); experiment: SPR (Biacore 2000): EGFR ECD-Fc immobilised on CM5, Fab injected
# Experimental: To investigate possible differences in antigen presentation between EGFR ECD presented in soluble and immobilized form, a new affinity measurement on an immobilized chimeric EGFR receptor antigen termed EGFR-Fc (R&D Systems, 344-ER), consisting of Human EGFR ECD fused to Human IgG Fc was performed.
# [7] = target: T4, human EGFR expressed on cells (human, UniProt P00533 25-1210); experiment: cell ELISA on A431-NS cells (Fab ED50) against SPR KD
# T4 construct: whole, on cells; also called EGFR on A431-NS cells; full length Human EGFR on transfected CHO cells
Binder,t1/2 [1],Inhibition Sample mAb [2],also measured
B1,3.6 min,95%,
B2,22.9 min,80%,
B3,0.2 min,116%,
B4,2.4 min,113%,
B5,31.1 min,87%,
B6,74.1 min,,IC50 (read off the curve) [3]: ~40 ng mAb/ml
B7,4.1 min,,IC50 (read off the curve) [3]: ~20 ng mAb/ml
B8,,,fold higher affinity against immobilized antigen as compared to soluble receptor [4]: 10 fold; EC50 (read off the curve) [5]: ~5 nM; t1/2 [6]: 57.5 min
B9,,,t1/2 [6]: 0.2 min; fold difference of the monovalent functional affinity on cells against the value tested with BIAcore [7]: 15 fold
B10,11.3 min,,
B11,78.1 min,,
B12,,,t1/2 [6]: 2.3 min
